The values that follow come from US9766240B2, “Method of identifying a compound for treating a hypoxic or ischemic related disorder” (Dana Farber Cancer Institute, Inc., priority 2001, dated 2017).

The target of assay [1] is T1, HIF bound to HA-pVHL (Homo sapiens, UniProt P40337).
T1 construct: expressed in transfected cells; host or cells: ts20 cells stably transfected with pIRES-HA-VHL
In words: Peptide elution of HIF coimmunoprecipitated with HA-pVHL from ts20 cells. It is filed as binding. Particulars: 7 μg of peptide in 65 μl PBS. The procedure:
Individual G418-resistant colonies were isolated using cloning cylinders and expanded. Cells producing HA-VHL or HA-VHL (Y98H) were identified by anti-HA immunoblot analysis. […] For the tests shown in FIG. 7C, ts20 cells were grown at the restrictive or permissive temperature for 14 hour, methionine-starved for 90 min, and then grown in the methionine-free media supplemented with ^35S-met ([…]) for 90 min.

Assay [2] has as its target T2, pVHL (Homo sapiens, UniProt P40337).
T2 construct: made in house; host or cells: coupled in vitro transcription/translation (TNT kit, Promega)
In words: Binding of 35S-labeled pVHL to immobilized biotinylated HIF (556-575) peptides. As to conditions: peptide on monomeric avidin Sepharose, autoradiography.

Square brackets hold non-standard residues; d marks the D form. Ends that are not written are not given here. Hyp = O=C(O)[C@@H]1C[C@@H](O)CN1

T2 sequence (P40337 whole entry): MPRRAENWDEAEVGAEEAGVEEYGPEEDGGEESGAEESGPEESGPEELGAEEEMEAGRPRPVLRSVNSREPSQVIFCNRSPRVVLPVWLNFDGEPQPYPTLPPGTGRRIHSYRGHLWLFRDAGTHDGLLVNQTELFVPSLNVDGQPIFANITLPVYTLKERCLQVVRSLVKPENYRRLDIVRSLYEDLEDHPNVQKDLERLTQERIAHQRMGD
T1 sequence (P40337 whole entry): as above
T1 sequence (P62869 whole entry partner): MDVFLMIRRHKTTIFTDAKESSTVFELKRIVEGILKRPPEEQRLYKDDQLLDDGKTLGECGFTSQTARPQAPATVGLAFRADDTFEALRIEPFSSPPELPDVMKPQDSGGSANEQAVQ
T1 sequence (P83940 whole entry partner): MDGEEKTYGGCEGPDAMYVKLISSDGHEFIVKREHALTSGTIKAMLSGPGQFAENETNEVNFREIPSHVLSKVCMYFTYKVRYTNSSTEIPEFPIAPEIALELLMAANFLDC

With “HIF (556-575) Pro564Ala peptide: HIF1α 556-575 peptide with Pro564 replaced by alanine (DLDLEMLAAYIPMDDDFQLR)”, the “elution of HIF bound to HA-pVHL” value in assay [1] is “not eluted”.

Turning to “HIF (556-575) peptide with the Leu562Ala substitution and hydroxyproline at residue 564: HIF1α 556-575 peptide, Leu562Ala, hydroxyproline at 564 (DLDLEMAA[Hyp]YIPMDDDFQLR)”, the “binding to pVHL” value in assay [2] was “pVHL bound”.
